This note sets out measurements from patent publication US20150167004, “OLIGONUCLEOTIDE INHIBITORS OF DNA […] AND THEIR USE IN TREATING DISEASES” (METHEOR THERAPEUTICS CORPORATION, published 2015).

In series [1] the target is T1, DNMT1 (Homo sapiens, UniProt P26358 P26358:1-1616). The series is described as follows: inhibition; tritiated methyl incorporation from SAM.
Series [2] concerns the target T2, DNMT3A (Homo sapiens, UniProt Q9Y6K1 Q9Y6K1:1-912). The series is described as above.
In series [3] the target is T3, DNMT3B (DNMT3b1) (Homo sapiens, UniProt Q9UBC3 Q9UBC3:1-853). The series is described as above.
For series [4], the target named is T1, DNMT1. In words: inhibition; 25 nM DNMT1, poly(dI:dC) substrate, 1 uM SAM; Table 5 gives 5.52 uM. To be noted: hairpin. As to the method:
(§1) DNA Methyltransferase 1 (DNMT1) was essentially assayed as described in Tollefsbol, T. O. and Hutchison III, C. A.: J. Biol. Chem. (1995), 270:18543-50 with the following modifications. Assay reaction was 5 μl volume, the DNA substrate was poly (dI:dC) 0.001 mg/ml and co-factor S-AdoMet at 1.0 μM; human DNMT1 was added at 25 nM. Reaction: S-adenosyl-L-[methyl-3H] methionine+DNA=S-adenosyl-L-homocysteine+DNA 5-[methyl-3H]-cytosine. S-AdoHCy was used as a positive control for the inhibition reaction.

Series [5] addresses T3, DNMT3B (DNMT3b1). In words: inhibition; 25 nM DNMT3B, lambda DNA substrate, 1 uM SAM.
Series [6] has as its target T2, DNMT3A. The series is described as follows: inhibition; 25 nM DNMT3A, lambda DNA substrate, 1 uM SAM.
Series [7] deals with T1, DNMT1. In words: inhibition; 25 nM DNMT1, poly(dI:dC) substrate, 1 uM SAM; Table 5 gives 348 nM. The following applies: hairpin. The protocol:
as §1

The target in series [8] is T3, DNMT3B (DNMT3b1). The series is described as follows: inhibition; 25 nM DNMT3B, lambda DNA substrate, 1 uM SAM; Table 5 gives 18.9 uM.
Series [9] concerns the target T2, DNMT3A. The series is described as follows: inhibition; 25 nM DNMT3A, lambda DNA substrate, 1 uM SAM; Table 5 gives 1.5 uM.
Series [10] addresses T3, DNMT3B (DNMT3b1). In words: inhibition; tritiated methyl incorporation from SAM; IC50 not estimable in Table 4.
Series [11] has as its target T1, DNMT1. In words: inhibition; 25 nM DNMT1, poly(dI:dC) substrate, 1 uM SAM; table header cites SEQ 5 and 6 but oligo is MTC-424F/R; Table 5 gives 1.43 uM. As to the method:
as §1

T1 sequence (P26358 whole entry, one chain of several): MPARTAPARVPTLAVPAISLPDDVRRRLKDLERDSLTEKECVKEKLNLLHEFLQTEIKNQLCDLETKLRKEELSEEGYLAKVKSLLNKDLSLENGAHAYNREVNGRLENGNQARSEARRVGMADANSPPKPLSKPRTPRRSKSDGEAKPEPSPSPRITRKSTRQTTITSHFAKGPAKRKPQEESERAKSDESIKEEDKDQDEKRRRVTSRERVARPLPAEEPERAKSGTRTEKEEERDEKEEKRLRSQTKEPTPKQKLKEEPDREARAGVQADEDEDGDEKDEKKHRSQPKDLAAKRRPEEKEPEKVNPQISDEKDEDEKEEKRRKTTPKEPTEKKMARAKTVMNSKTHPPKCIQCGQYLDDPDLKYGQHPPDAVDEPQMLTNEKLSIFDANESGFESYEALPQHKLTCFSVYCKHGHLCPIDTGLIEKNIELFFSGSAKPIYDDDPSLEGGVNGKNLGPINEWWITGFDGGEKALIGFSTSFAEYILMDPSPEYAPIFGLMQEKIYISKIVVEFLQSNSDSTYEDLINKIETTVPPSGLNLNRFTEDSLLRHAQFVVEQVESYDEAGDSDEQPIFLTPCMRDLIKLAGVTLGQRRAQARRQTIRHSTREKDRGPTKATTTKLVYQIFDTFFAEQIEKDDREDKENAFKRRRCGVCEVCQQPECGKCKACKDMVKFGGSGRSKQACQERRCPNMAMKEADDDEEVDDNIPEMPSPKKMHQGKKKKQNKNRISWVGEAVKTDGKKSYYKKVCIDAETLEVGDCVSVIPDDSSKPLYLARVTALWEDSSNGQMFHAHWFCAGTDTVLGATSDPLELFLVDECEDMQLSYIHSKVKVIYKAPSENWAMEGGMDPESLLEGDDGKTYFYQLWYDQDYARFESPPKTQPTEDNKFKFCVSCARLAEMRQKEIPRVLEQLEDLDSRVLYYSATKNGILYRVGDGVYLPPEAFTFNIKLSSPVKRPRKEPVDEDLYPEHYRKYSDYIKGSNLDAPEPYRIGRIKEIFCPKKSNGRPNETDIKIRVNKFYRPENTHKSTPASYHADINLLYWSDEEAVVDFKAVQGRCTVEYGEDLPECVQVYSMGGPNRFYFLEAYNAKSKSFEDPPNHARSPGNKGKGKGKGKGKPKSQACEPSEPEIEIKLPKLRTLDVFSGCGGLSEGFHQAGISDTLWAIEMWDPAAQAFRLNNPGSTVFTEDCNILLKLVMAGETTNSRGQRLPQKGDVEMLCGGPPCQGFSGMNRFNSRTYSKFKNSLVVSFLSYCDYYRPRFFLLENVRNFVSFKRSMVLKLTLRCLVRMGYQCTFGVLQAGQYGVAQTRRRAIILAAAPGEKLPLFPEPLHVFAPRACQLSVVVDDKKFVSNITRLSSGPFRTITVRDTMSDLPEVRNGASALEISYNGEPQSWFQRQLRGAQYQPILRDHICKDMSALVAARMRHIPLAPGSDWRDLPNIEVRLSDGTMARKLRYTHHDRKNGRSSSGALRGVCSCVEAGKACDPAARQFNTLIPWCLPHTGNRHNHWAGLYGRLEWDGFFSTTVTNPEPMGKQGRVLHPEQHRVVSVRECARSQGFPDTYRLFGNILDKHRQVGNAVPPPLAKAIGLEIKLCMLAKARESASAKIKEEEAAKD
T2 sequence (Q9Y6K1 whole entry, one chain of several): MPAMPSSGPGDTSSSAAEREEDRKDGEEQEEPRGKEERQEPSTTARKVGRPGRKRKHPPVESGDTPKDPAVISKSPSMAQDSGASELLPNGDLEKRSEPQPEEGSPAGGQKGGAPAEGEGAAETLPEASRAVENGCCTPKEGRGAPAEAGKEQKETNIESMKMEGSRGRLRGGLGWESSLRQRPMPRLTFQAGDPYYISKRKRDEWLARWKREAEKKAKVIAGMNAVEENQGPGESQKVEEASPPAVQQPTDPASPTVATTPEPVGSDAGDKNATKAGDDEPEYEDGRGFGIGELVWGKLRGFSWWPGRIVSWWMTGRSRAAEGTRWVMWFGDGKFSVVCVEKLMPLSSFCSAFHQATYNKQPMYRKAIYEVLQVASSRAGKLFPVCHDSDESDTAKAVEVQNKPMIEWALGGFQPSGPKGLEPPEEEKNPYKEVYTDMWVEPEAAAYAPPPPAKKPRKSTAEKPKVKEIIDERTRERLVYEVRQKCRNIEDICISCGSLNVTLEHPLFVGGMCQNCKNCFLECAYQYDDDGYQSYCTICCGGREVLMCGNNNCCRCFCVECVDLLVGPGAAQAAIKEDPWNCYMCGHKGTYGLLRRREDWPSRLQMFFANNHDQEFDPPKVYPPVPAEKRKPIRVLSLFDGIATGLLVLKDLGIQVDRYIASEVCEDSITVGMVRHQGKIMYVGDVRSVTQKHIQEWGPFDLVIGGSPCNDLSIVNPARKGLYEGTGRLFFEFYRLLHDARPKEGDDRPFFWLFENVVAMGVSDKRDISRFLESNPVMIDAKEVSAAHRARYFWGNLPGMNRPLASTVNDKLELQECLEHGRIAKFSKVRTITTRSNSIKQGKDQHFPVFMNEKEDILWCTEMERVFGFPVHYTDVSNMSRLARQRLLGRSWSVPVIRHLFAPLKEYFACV

For CCTATGCGATCGAGTTTTCTCGATCGCATAGG (structured_DNA, 5mC at 7 and 11; deoxy-zebularine at 21 and 25; PS backbone [7,11,21,25]) [MTC-433], it took 4.22 nM to reach half-maximal inhibition with DNMT1 [1] (hairpin) (IC50).
Take CCTATGCGATCGAGTTTTCTCGATCGCATAGG (structured_DNA, deoxy-zebularine at 21 and 25; PS backbone [21,25]) [MTC-432]: in the series with DNMT1 [1] (hairpin), it took 8.3 nM to reach half-maximal inhibition (IC50).

B1: MTC-427 (MTC-423m) (structured_DNA)
DNA: CCTATGCGATCGAGTTTTCTCGATCGCATAGG
modifications: 5mC at 7 and 11; zebularine (pyrimidin-2-one ribonucleoside) at 21 and 25; phosphodiester [7,11,21,25]
B1: the results for the IC50 in the series with DNMT3A [2], in the series with DNMT3B (DNMT3b1) [3] and in the series with DNMT1 [1] (hairpin) were 1520 nM, 6200 nM and 295 nM, respectively.
Take CCTATGCGATCGAGTTTTCTCGATCGCATAGG (structured_DNA, 5mC at 7 and 11; 5-aza-5,6-dihydro-dC at 21 and 25; phosphodiester [7,11,21,25]) [MTC-425 (MTC-422m)]: the values for the IC50 with DNMT3A [2], with DNMT3B (DNMT3b1) [3] and with DNMT1 [1] (hairpin) were 6690 nM, more than 100000 nM and 504 nM, respectively.

B2: MTC-422 (structured_DNA)
DNA: CCTATGCGATCGAGTTTTCTCGATCGCATAGG
modifications: 5-aza-5,6-dihydro-dC at 21 and 25; phosphodiester [21, 25 (5-aza-5,6-dihydro-dC)]
In the case of B2, the IC50 is 1430 nM with DNMT1 [4], 21300 nM with DNMT3B (DNMT3b1) [5] and 5700 nM with DNMT3A [6].

B3: MTC-423 (structured_DNA)
DNA: CCTATGCGATCGAGTTTTCTCGATCGCATAGG
modifications: zebularine (pyrimidin-2-one ribonucleoside) at 21 and 25; phosphodiester [21,25]
On to B3, for which the IC50 with DNMT1 [7] was found to be 363 nM; with DNMT3B (DNMT3b1) [8], 17500 nM; with DNMT3A [9], 1600 nM.

B4: MTC-424 (dsDNA)
DNA 1: GTACATGCGCTCCAGA
DNA 2: TCTGGAGCGCATGTAC
modifications: 5-aza-5,6-dihydro-dC at 8 of F strand; phosphodiester [F strand: 8]
As to B4, the values for the IC50 with DNMT3B (DNMT3b1) [10], with DNMT1 [11] and with DNMT3A [6] were more than 100000 nM, 1940 nM and 10200 nM, respectively.

B5: MTC-429 (dsDNA)
DNA 1: GTACATGCGCTCCAGA
DNA 2: TCTGGAGCGCATGTAC
modifications: 5-aza-5,6-dihydro-dC at 8 of F strand; 5mC at 8 of R strand; phosphodiester [F strand: 8; R strand: 8]
With B5, the half-maximal inhibitory concentration (IC50) with DNMT3A [2] was more than 50000 nM; with DNMT1 [1] it was 906 nM.

The IC50 is the concentration at which inhibition is half-maximal. Read a high IC50 as lower potency.
